In the nanobody polyreactivity screen of Harvey et al. (2022):

Assay: yeast display, Sf9 membrane polyspecificity reagent, FACS + sequencing; frameworks hold sequencing errors
Summary of the method: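 Nanobodies from a synthetic yeast display library (Saccharomyces cerevisiae BJ5465), induced 36–48 hours with galactose, were stained 1 hour at 4 °C with 10% biotinylated, detergent-solubilized Sf9 membrane reagent, enriched on streptavidin microbeads, then FACS-sorted. Anti-HA (expression) and streptavidin (reagent binding) fluorescence set low and high (top ~1%) gates. Polyreactivity labels come from the gate of origin. Genes were colony-PCR amplified, MiSeq 2 × 250 sequenced and filtered by CDR length.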

Row | Sequence | polyreactivity (PSR sort gate)
1 | QVQLVESGGGLVQAGGSLRLSCAASGSTFPGYAMGWYRQAPGKERELVAAGGSTYYADSVKGRFTISRDNAKNTVYFQMNSLKPEDTAGYYCAATWGSVQKGTYYYWGQGTQVTVSS | low polyreactivity
2 | QVQLVESGGGLVQAGGSLRLSCAASGFIFTDNAMGRYRHAPRTERELVAAINLSGTRTYYADSVKGRFTISRDNAKNTVYLQMNSLKPEDTAVYYCNKSEDYTYDYWGQGTQVTVSS | low polyreactivity
3 | QVQLVESGGGLVQAGGSLRLSCAASGLTLTYYAMGWYRQAPGKERELVAAISSSGGSTYYADSVKGRFTISRDNAKNTVYLQMNSLKPEDTAVYYCAATRVSWTGRDDYWGQGTQVTVSS | high polyreactivity
4 | QVQLVESGGGLVQAGGSLRLSCAASGRIFPAYAMGWYRQAPWKERELVASIRRGGITYADSVKGRFTISRDNAKNTVYLQMNSLKPEDSAVYYCNADYRGWGYHMYYWGQGTQVTVSS | low polyreactivity
5 | QVQLVESGGGLVQAGGSLRLSCAASGSTLYKYAMVWYRQAPGKEREFVAAITRSGGSTYYADSVKGRFTISRDNAKNTVDLQMNSLKPEDTAVYYCAARVRVYSGWLYNYWGQGTQVTVSS | high polyreactivity
6 | QVQLVESGGGLVQAGVSLRLSCAASGSIFYAYAMGWYRQAPGKERELVAVINSGGSTYYADSVKGRFRISSEYAKNTVYLQMNSLKPEDTAVYYCNGTQYRGKYDYPPPGRGYYYWGQGTHVTVSS | high polyreactivity
7 | QVQLVESGGGLVQAGGSLRLSCAASGSTFVANVMGWYRQAPGKERELVATINSTSGSTYYADSVKGRFTISRDNAKNTVYLQMNSLKPEDTAVYYCNATHEGFELDYWGQGTQVTVSS | low polyreactivity
8 | QVQLEDAGGGLVQAGGSLRLSCAASGRIIGWYTIGRYRQAPGKERELVATSSSSGASTYYADSVKGRFTISRDNAKNSVYFQMNSLKPEDTGVYYCAAQYYPYSFAHRYGYWGQGSQVTVSS | high polyreactivity
9 | QVQLVESGGGLVQAGGSLRLSSAASGITFKYYVMGWYRQAPGKEREFVAAISWGGGSTYYADSVKGRFTISRDNAKITVYLQMNSLKPEDTAVYYCATSHGLYTRWYDYWGQGTQVTVSS | high polyreactivity
10 | QVQLVESGGGLVQAGGSLRLSCAASGSIFWSNAMGWYRQEPVKEREMVARISTSGGRTYYADSVKGRFTISRDNAKNTVYLQMNSLKPEDTAVYYCADDPYRWYYSTFYYWGQGTQVTVSS | high polyreactivity
11 | QVQLVESGGGLVHAGGSLRLSCASSGSTFRPYAMGCYRQAPGKERELVAAIRKIGGRTYYADSVKGRFTISRDNANNTVYLQMNSLKPEDTAVYNCNKRIGGGVHAYNYWGQGTQVSVSS | low polyreactivity
12 | QVQLVESGGGLVQAGGSLRLSCAASGRILTTYAMGWYRQAPGKERELVAAITTIGGRTYYADSVKGRFTISRDNAKNTVYLQMNSLKPEDTAVYYCAADVYYEYDYWGQGTQVTVSS | low polyreactivity
13 | QVQLVESGGGLVQAGGSLRLSCAASGFTFFFNAMGWYRQAPGKERELVASIRSDGDTNYADSVKGRFTISRDNAKNTVYLQMNSLKPEDTAVYYCAKVWYVFRYVSTEYDYWGQGTQVTVSS | high polyreactivity
14 | QVQLVESGGGLVQAGGSLRLSCAASGRIFTRYAMGWYRQAPWKERELVAVITRSGGSTYYADSVKGRFTISRDNAKNTVYFKMNSLIPEDTAVYYCAVRPYELHRLADQPGGDDYWGQGTQVTVSS | low polyreactivity
15 | QVRLVESGGGLVQAGGSLRLSCADSGSTFTTYAIGWYRQEPGKERELVAAISSGGDTKYADSVKGRFTISRDNAKNTVYLQMNSLKPEDTAVYYWNVVSFRYYYKYGYCGQGTQVTVSS | high polyreactivity
16 | QVQLVESGGGLVQAGGSLRLSCAASGSTFGPYAMGWYRQAPGKERELVADISGGSTNYADSVKGRFTISRDNAKNTVYLQMNSLKPEDTAVYYGAADSYPAYLGFVGFDYWGQGTQVTVSS | low polyreactivity
17 | QVHLVESGGGLVQAGGSLRLICAASGFTFAVYAMGWYRQAPGKERELVAAISRSSGRTYYADSVKGRFTISRDNAKNTVYLQMNSLKPEDTAVYYCNARRGSPAPYDYWGQGTQVTVSS | high polyreactivity
